The text below walks through data of publication PMC13483431, “Structure and mechanism of the HSV-1 origin-binding protein UL9” (Journal of Virology, 2025).

Data set [1] has as its target UL9CTD wild type (HSV-1, UniProt P10193 536-851). Kind of data set: MST; MST: 50 mM Tris pH 8.0, 150 mM NaCl, 1 mM DTT, 0.05% Tween-20, 40 nM FAM-dsDNA, 25 C; EMSA: 50 mM Tris pH 8.0, 50 mM NaCl, 1 mM DTT, 40 nM FAM-dsDNA, 0.5-3.5 uM protein, 4 C; cryo-EM complex: 20 mM HEPES pH 7.0, 150 mM NaCl, 1 mM DTT. The following applies: protein: recombinant; tags: N-terminal 8xHis; blunt. On the technique in general: A gel shift assay detects complexes by their altered migration in electrophoresis.

The target of data set [2] is T1, full-length HSV-1 ICP8 with an N-terminal 8xHis tag (HSV-1, UniProt P04296 1-1196).
T1 construct: also called His-tagged ICP8; source: insect cells (baculovirus, as UL9^FL), purified (Ni-NTA); not shown: 8xHis, N-terminal, kept
T1 sequence: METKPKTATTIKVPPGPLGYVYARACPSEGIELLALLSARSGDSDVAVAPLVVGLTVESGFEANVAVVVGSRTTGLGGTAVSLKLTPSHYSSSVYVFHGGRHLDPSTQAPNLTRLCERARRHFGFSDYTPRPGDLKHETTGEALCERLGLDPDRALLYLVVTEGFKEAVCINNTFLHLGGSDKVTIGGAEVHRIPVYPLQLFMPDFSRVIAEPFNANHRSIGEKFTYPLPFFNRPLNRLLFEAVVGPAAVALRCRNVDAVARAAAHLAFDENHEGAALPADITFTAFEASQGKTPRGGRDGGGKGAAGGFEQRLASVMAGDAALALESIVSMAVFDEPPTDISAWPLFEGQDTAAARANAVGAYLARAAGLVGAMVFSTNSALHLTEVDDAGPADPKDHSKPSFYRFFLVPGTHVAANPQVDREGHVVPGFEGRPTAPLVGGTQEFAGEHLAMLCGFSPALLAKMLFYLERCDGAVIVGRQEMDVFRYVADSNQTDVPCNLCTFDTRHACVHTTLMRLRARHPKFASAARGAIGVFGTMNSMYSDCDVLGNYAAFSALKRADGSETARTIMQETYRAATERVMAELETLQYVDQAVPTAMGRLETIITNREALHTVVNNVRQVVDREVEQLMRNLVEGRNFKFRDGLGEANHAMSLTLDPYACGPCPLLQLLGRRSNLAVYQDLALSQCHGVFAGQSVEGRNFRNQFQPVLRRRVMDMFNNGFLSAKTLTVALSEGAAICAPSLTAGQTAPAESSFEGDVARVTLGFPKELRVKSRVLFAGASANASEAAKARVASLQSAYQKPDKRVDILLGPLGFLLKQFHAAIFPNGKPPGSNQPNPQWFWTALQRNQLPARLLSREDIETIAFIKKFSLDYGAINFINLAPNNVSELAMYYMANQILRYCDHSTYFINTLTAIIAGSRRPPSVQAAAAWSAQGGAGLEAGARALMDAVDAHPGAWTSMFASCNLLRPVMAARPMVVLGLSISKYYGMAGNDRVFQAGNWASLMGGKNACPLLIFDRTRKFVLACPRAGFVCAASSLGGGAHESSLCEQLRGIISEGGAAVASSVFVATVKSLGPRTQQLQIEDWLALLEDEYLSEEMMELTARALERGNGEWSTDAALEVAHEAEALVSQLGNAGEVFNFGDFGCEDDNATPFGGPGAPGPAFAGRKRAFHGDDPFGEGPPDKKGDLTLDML
Kind of data set: pull-down; Strep-tag pull-down: 50 μg Strep-tagged UL9^CTD or full-length UL9 as bait with an equal amount of ICP8; 50 mM Tris pH 8.0, 150 mM NaCl, 1 mM DTT, 0.05% Tween-20; 1 h at 4 °C; SDS-PAGE with Coomassie. The following applies: both partners purified.

The target in data set [3] is T1, full-length HSV-1 ICP8 with an …. The data set is described as follows: pull-down; GST pull-down: 50 μg GST-tagged UL9^CTD variants or C-tail peptides on GST beads with an equal amount of ICP8; 50 mM Tris pH 8.0, 150 mM NaCl, 1 mM DTT, 0.05% Tween-20; 1 h at 4 °C; SDS-PAGE with Coomassie. The following applies: both partners purified.

B1: 15-bp oriS Box I dsDNA (dsDNA)
DNA 1: GCGTTCGCACTTCGT
DNA 2: ACGAAGTGCGAACGC
For the molecule B1, the Kd (commonly the concentration at which binding is half-saturated) in data set [1] worked out at 2.23 ± 0.42 µM.

B2: Strep-tagged UL9 C-terminal domain (residues 536-851) (domain or fragment)
chain: PEASLPAQAAETEEVGLFVEKYLRSDVAPAEIVALMRNLNSLMGRTRFIYLALLEACLRVPMATRSSAIFRRIYDHYATGVIPTINVTGELELVALPPTLNVTPVWELLCLCSTMAARLHWDSAAGGSGRTFGPDDVLDLLTPHYDRYMQLVFELGHCNVTDGLLLSEEAVKRVADALSGCPPRGSVSETDHAVALFKIIWGELFGVQMAKSTQTFPGAGRVKNLTKQTIVGLLDAHHIDHSACRTHRQLYALLMAHKREFAGARFKLRVPAWGRCLRTHSSSANPNADIILEAALSELPTEAWPMMQGAVNFSTL
notes: HSV-1 UL9 C-terminal domain, residues 536-851; As the His-tagged construct, with the N-terminal 8xHis tag replaced by a Strep-tag; also called UL9^CTD; Strep-tagged UL9^CTD; source: E. coli BL21 (DE3), purified (Strep-Tactin XT, Superdex 75); not shown: Strep-tag, N-terminal, kept
Turning to B2, the binding result in data set [2] is “binds”.

B3: GST-tagged UL9 C-terminal domain (residues 536-851) (domain or fragment)
chain: PEASLPAQAAETEEVGLFVEKYLRSDVAPAEIVALMRNLNSLMGRTRFIYLALLEACLRVPMATRSSAIFRRIYDHYATGVIPTINVTGELELVALPPTLNVTPVWELLCLCSTMAARLHWDSAAGGSGRTFGPDDVLDLLTPHYDRYMQLVFELGHCNVTDGLLLSEEAVKRVADALSGCPPRGSVSETDHAVALFKIIWGELFGVQMAKSTQTFPGAGRVKNLTKQTIVGLLDAHHIDHSACRTHRQLYALLMAHKREFAGARFKLRVPAWGRCLRTHSSSANPNADIILEAALSELPTEAWPMMQGAVNFSTL
notes: HSV-1 UL9 C-terminal domain, residues 536-851; Cloned into pGEX-6P-1; also called UL9^CTD; source: E. coli BL21 (DE3), purified (Glutathione-Sepharose 4B); not shown: GST, N-terminal, kept
For the molecule B3, the binding result in data set [3] is on record as “binds”.
